This note sets out measurements from patent US20190192484A1 (UNIVERSITY OF CHICAGO, published 2019).

The target of this assay is Vimentin (endogenous, WT fibroblasts) (mouse, UniProt P20152 2-466). As to the kind of experiment: proximity ligation assay in WT fibroblasts with anti-BAD and anti-Vimentin (FIG. 8F).
Chain of Vimentin (endogenous, WT fibroblasts) (P20152 2-466 limits assumed): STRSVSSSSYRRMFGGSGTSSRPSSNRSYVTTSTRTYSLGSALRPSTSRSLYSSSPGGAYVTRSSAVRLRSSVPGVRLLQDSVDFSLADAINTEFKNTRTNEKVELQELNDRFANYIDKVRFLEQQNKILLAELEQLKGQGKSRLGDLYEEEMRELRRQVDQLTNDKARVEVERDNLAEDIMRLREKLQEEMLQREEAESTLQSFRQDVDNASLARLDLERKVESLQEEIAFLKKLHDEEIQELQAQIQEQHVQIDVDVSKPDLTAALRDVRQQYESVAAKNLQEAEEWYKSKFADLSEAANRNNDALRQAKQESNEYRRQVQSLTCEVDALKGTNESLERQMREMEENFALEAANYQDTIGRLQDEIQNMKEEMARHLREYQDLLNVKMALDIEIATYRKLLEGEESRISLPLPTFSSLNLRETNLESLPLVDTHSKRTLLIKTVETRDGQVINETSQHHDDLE

B1: BCL-2-associated death promoter (BAD), endogenous in WT fibroblasts (other, mouse, UniProt Q61337 1-204, looked up)
chain: MGTPKQPSLAPAHALGLRKSDPGIRSLGSDAGGRRWRPAAQSMFQIPEFEPSEQEDASATDRGLGPSLTEDQPGPYLAPGLLGSNIHQQGRAATNSHHGGAGAMETRSRHSSYPAGTEEDEGMEEELSPFRGRSRSAPPNLWAAQRYGRELRRMSDEFEGSFKGLPRPKSAGTATQMRQSAGWTRIIQSWWDRNLGKGGSTPSQ
notes: Endogenous protein inside fixed cells (microscopy, proximity ligation assay); also called WT BAD
Regarding B1, the binding result was “no binding”.
